Measurements: paper PMC11313866 (Science Advances, 2024)

Molecular target: recombinant S. cerevisiae histone H3-H4 (S. cerevisiae, UniProt P61830 1-136; P02309 1-103)
Test: pull-down

binding result: binds
B1: GST-Pol32^244-350 (domain or fragment)
chain: DKNNDDLEDLLETTAEDSLMDVPKIQQTKPSETEHSKEPKSEEEPSSFIDEDGYIVTKRPATSTPPRKPSPVVKRALSSSKKQETPSSNKRLKKQGTLESFFKRKAK
